In patent US20250134019A1, “TRIKETONE DIOXYGENASE VARIANTS FOR HERBICIDE TOLERANCE” (Monsanto Technology LLC, priority 2022, published 2025):

Experiments:
[1] = tested on: transgenic soybean plants; assay: Response of R0 soybean plants transformed with Round 2 TDO variants to mesotrione; type: in vivo; conditions: R0 transgenic soybean sprayed with mesotrione
Excerpt: The next set of experiments was focused on determining if the balance between improved enzyme stability could outweigh a reduction in activity observed at optimal temperatures in soybean plants. […] To test this hypothesis, the eight variants from Round 2 biochemical analysis described in the preceding paragraph were transformed into soybean through Agrobacterium-mediated transformation, along with three controls. One of the controls (TDO_9) was a variant from the high-throughput screens that had poor activity. Two other controls were the D08 variant and the Os.TDO. R0 transgenic soybean plants were sprayed with the mesotrione herbicide to screen for herbicide tolerance. […] These included the Os.TDO control, the D08 variant and one Round 2 variant. The plants were scored for percent injury as described in the previous examples.

[2] = Enzyme activity (Kcat/Km) for hydroxylation of mesotrione at room temperature; type: biochemical; conditions: Round 2 high-throughput screens
Description: The enzyme activity was expressed as Kcat/Km, M-1 sec-1. […] The enzyme activity was measured at room temperature for the hydroxylation of mesotrione, and was defined as Kcat/Km, M-1 sec-1 (specificity constant). Of these variants, four were tested in soybean plants. […] TDO activity was measured by the second hydroxylation of mesotrione. For routine activity measurements of TDO and determining the kinetic properties of the second hydroxylation, the continuous change in […], which is specific to the second hydroxylation and subsequent non-enzymatic water removal (i.e. the conversion of hydroxy-mesotrione to oxy-mesotrione), was monitored. […] The reaction proceeded until the maximum […] was obtained (usually 20-120 minutes depending upon the concentration of mesotrione) and the linear portion of the curve was determined by visual inspection. […] The reaction mixtures were analyzed by HPLC and mass spectrophotometry. By product conversation followed by peak integration on HPLC, a linear plot was obtained and the extinction co-efficient delta between the substrate (mesotrione) and the second product (oxy-mesotrione) was obtained according to the equation […]=(εp-εs)*bΔp where […] is the change of absorbance at 330 nm and b is the light path.

activity in high-throughput screens [2]: poor activity
B1: TDO_9: Os.TDO variant, SEQ ID NO:44, F199L-K279R relative to D08; control with poor activity (protein)
chain: MADESWRAPALVQELAAKGVEEPPSRYLLREQDRPDVKLVAAELPEPIPVVDLGRLDGAEEATKLRVALQNWGFFLLTNHGIEASLMDDVMNLSREFFNQPIERKQKFSNLIDGKHFQIEGYGTDRVVTQDQVLDWSDRLHLRVEPKEEQDLAFWPDHPESFRDVLHKYASGCKRIRDDIIQAMAKLLELDEDYFLDRLNEAPTFARFNYYPPCPRPDLVFGIRPHSDGGLLTILLVDKDVGGLQVQRDGKWSNVPATPHTLLINLGDTMEVMSNGIFRSPVHRVVTNAEKERISLAMLYSVNDEKDIEPAAGLLDENRPARYRKVSVEEFRAGIFGKFSRGERYIDSLRI
modifications: TDO variant sequence
R0 % Injury [1]: 36%
